B1: CAR-T22.13 chimeric antigen receptor (anti-CD22 scFv from antibody 16F7, CD8 hinge and transmembrane region, 4-1BB, CD3 zeta), on primary human T cells (other)
chain: EVQLVQSGAEVKKPGESLKISCKGSGYNFTSYWIGWVRQMPGKGLEWMGIIYPGDSDTRYSPSFQGQVTISADKSISTAYLQWSSLKASDTAMYYCATPTYYFGSVAFDIWGQGTMVTVSSGGGGSGGGGSGGGGSEIVLTQSPDFQSVTPKEKVTITCRASQSIGSSLHWYQQKPDQSPKLLIKYASQSFSGVPSRFSGSGSGTDFTLTINSLEAEDAAAYYCHQSSSLPYTFGQGTKLEIKFVPVFLPAKPTTTPAPRPPTPAPTIASQPLSLRPEACRPAAGGAVHTRGLDFACDIYIWAPLAGTCGVLLLSLVITLYCKRGRKKLLYIFKQPFMRPVQTTQEEDGCSCRFPEEEEGGCELRVKFSRSADAPAYQQGQNQLYNELNLGRREEYDVLDKRRGRDPEMGGKPRRKNPQEGLYNELQKDKMAEAYSEIGMKGERRRGKGHDGLYQGLSTATKDTYDALHMQALPPR
notes: CAR on the membrane of lentivirus-transduced T cells; also called CART-CD22.13; CAR22.13
B2: CAR-T22.14 chimeric antigen receptor (anti-CD22 scFv from antibody 4G6, CD8 hinge and transmembrane region, 4-1BB, CD3 zeta), on primary human T cells (other)
chain: QVQLVQSGAEVKKPGSSVKVSCKPSGDTFSNYAISWVRQAPGQGLEWMGRIIPILGMAIYAPKFQGRVTITADKSTNTAFMDLTSLYFEDTAVYYCARAPTYWGSKDYFDYWGQGTLVTVSSGGGGSGGGGSGGGGSAIQLTQSPSSLSASVGDRVTITCRASQDISSGLAWYQQKPGTAPKLLIYDASSLESGVPSRFSGSGSGTDFTLTISSLQPDDFATYYCQQFNSFPYTFGQGTKLEIKFVPVFLPAKPTTTPAPRPPTPAPTIASQPLSLRPEACRPAAGGAVHTRGLDFACDIYIWAPLAGTCGVLLLSLVITLYCKRGRKKLLYIFKQPFMRPVQTTQEEDGCSCRFPEEEEGGCELRVKFSRSADAPAYQQGQNQLYNELNLGRREEYDVLDKRRGRDPEMGGKPRRKNPQEGLYNELQKDKMAEAYSEIGMKGERRRGKGHDGLYQGLSTATKDTYDALHMQALPPR
notes: CAR on the membrane of lentivirus-transduced T cells; also called CART-CD22.14; CAR22.14

Biological target: T1, recombinant human CD22 protein with Fc segment (staining reagent) (human, UniProt P20273 20-687)
T1 construct: Reagent used for flow cytometry staining of the CAR; also called Fc fragment of a recombinant human CD22 protein; Fc segment of recombinant human CD22 protein; not shown: Fc segment
T1 sequence (looked up): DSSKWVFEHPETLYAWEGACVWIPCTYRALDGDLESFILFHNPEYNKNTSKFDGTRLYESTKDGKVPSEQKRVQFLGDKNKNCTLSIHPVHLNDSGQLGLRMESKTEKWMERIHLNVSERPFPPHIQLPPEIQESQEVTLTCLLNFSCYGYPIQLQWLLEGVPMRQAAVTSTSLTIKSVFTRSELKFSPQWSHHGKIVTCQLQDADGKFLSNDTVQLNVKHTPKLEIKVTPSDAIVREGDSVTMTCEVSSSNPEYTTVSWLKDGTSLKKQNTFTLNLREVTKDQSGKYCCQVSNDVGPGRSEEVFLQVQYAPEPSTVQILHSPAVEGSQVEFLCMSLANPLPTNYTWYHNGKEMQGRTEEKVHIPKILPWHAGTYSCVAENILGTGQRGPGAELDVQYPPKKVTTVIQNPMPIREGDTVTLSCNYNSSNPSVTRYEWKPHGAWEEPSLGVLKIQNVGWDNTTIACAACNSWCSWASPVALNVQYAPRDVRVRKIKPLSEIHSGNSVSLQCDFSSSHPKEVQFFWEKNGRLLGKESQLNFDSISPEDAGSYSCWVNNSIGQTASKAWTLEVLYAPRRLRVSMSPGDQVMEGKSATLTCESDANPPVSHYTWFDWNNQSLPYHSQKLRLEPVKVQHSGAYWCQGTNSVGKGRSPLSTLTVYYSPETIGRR
Experiment: flow cytometry of CAR-T cells stained with recombinant human CD22-Fc protein, with untransduced T cells as control
Procedure: 0.2×10⁶ of CART-CD22.5, CART-CD22.13 and CART-CD22.14 sample cells cultured to Day 6 in Example 2 (FIG. 2) were taken, and, after staining the Fc segment of recombinant human CD22 protein, the expression level of CAR-CD22 protein on the surface of T cell membranes was analyzed by flow cytometry, with untransduced T cells (NT cells) used as control.

Binder | binding result
B1 | binds
B2 | binds
